Source: PMC9751095 (2022)

Biological target: T1, Myc-TRAP1 (human, UniProt Q12931 60-704)
T1 chain: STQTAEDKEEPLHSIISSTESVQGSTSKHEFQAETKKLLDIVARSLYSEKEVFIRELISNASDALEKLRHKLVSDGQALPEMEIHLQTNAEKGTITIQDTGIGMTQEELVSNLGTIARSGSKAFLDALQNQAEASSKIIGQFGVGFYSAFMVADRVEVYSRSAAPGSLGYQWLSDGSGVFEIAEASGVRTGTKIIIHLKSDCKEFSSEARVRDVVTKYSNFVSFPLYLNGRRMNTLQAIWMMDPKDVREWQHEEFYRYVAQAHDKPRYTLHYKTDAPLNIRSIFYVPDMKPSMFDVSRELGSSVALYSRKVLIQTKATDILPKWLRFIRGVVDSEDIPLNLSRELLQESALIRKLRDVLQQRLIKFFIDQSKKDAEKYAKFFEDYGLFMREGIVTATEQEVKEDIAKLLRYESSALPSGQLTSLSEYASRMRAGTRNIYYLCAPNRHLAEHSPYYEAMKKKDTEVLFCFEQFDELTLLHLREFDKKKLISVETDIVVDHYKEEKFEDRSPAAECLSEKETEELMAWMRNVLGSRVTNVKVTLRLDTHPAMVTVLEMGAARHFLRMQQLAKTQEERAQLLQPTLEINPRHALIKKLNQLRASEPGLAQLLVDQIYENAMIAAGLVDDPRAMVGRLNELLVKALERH
Assay: SPR; printed as "Ka 69.8 µM"

B1: recombinant mature human OSCP (natural protein)
chain: FAKLVRPPVQVYGIEGRYATALYSAASKQNKLEQVEKELLRVAQILKEPKVAASVLNPYVKRSIKVKSLNDITAKERFSPLTTNLINLLAENGRLSNTQGVVSAFSTMMSVHRGEVPCTVTSASPLEEATLSELKTVLKSFLSQGQVLKLEAKTDPSILGGMIVRIGEKYVDMSVKTKIQKLGRAMREIV
  Kd: 69.8 µM
